In publication PMC8602451:

Columns and labels:
Test in all cases: TurboID proximity labelling, streptavidin pull-down, LC-MS
Conditions in all cases: U2OS stable cell lines; 50 μM biotin for 2 h; read off a plot
DAXX = molecular target: DAXX
EXOSC9 = molecular target: EXOSC9
FUS = molecular target: FUS
GATAD2B = GATAD2B (UniProt Q8WXI9)
HSPA8 = molecular target: HSPA8
IRF2BP2 = IRF2BP2 (UniProt Q7Z5L9)
PIAS1 = PIAS1 (UniProt O75925)
PIAS2 = PIAS2 (UniProt O75928)
PIAS3 = PIAS3 (UniProt Q9Y6X2)
PIAS4 = PIAS4 (UniProt Q8N2W9)
RAD54L2 = molecular target: RAD54L2
RBM22 = molecular target: RBM22
SIMC1 = molecular target: SIMC1
SNW1 = SNW1 (UniProt Q13573)
TRIM24 = TRIM24 (UniProt O15164)
TRIM33 = TRIM33 (UniProt Q9UPN9)
XAB2 = XAB2 (UniProt Q9HCS7)
ZNF280A = molecular target: ZNF280A
ZNF280B = ZNF280B (UniProt Q86YH2)

Sequence of UniProt Q9Y6X2 (Q9Y6X2 whole entry): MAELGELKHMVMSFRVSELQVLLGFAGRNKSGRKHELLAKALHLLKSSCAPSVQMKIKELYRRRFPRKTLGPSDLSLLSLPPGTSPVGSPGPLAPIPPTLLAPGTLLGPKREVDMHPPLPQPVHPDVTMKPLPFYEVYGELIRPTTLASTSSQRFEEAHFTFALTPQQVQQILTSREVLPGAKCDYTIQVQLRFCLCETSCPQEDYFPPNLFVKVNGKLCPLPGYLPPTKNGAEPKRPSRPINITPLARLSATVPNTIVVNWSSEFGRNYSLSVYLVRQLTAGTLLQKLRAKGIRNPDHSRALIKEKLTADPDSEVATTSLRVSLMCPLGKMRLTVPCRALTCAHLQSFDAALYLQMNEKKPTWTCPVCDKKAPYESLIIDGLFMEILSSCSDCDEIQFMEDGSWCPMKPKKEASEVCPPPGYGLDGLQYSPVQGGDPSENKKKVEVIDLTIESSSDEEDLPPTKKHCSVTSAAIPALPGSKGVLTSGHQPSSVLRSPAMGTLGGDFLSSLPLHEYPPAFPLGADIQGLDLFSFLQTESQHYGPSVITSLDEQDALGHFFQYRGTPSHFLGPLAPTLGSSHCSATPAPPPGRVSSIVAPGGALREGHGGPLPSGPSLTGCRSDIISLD
Sequence of UniProt O15164 (O15164 whole entry): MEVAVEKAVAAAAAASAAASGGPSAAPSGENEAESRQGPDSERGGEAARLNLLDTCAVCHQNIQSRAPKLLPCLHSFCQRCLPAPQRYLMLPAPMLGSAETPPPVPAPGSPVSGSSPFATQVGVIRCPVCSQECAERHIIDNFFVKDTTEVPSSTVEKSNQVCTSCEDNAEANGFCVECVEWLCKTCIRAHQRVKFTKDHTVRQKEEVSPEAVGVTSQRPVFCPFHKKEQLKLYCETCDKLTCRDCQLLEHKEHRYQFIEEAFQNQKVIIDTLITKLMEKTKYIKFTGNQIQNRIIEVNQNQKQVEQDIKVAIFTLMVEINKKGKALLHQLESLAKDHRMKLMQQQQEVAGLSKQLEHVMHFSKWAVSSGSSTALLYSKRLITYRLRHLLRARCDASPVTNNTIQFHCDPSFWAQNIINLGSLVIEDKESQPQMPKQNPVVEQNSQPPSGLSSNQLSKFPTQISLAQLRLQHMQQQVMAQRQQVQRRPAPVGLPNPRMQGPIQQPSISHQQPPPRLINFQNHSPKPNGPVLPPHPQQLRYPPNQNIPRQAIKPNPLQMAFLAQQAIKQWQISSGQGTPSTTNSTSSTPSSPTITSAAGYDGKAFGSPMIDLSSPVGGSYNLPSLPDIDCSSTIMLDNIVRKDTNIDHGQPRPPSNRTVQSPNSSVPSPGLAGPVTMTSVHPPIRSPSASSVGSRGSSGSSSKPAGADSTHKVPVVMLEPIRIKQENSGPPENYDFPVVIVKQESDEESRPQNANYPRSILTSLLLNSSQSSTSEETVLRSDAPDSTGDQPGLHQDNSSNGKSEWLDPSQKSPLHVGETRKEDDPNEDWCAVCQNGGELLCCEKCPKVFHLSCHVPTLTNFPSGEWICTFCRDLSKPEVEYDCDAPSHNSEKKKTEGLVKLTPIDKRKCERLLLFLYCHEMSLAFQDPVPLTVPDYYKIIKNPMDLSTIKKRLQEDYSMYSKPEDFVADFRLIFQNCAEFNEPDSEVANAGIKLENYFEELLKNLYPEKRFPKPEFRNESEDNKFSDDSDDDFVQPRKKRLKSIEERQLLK
Sequence of UniProt Q8N2W9 (Q8N2W9 whole entry): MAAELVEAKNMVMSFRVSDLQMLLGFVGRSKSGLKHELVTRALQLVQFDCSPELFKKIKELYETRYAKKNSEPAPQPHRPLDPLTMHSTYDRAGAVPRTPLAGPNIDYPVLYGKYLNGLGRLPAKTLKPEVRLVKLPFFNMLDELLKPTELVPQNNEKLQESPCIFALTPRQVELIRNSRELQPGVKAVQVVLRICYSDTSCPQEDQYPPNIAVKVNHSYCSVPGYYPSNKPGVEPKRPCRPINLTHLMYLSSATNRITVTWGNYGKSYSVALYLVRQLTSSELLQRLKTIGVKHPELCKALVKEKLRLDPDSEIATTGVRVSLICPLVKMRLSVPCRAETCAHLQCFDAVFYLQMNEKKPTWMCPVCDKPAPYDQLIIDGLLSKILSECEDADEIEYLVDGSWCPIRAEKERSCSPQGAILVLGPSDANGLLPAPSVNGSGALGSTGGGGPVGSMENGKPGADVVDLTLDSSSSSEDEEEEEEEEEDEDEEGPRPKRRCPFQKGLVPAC
Sequence of UniProt Q7Z5L9 (Q7Z5L9 whole entry): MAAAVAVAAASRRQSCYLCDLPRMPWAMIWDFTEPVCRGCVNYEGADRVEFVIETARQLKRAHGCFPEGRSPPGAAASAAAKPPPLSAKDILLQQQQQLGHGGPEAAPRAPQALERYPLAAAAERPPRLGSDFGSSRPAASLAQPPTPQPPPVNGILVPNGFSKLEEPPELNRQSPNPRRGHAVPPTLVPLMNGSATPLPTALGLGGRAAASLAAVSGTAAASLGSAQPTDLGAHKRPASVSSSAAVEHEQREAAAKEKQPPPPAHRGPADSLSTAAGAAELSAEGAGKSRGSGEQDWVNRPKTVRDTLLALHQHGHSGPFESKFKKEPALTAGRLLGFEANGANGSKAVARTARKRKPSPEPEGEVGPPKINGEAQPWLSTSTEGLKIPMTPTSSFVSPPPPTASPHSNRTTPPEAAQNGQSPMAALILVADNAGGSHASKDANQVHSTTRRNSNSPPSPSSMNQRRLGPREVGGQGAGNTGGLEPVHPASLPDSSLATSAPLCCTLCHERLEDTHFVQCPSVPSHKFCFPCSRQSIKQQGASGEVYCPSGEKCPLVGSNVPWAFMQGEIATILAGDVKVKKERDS
Sequence of UniProt Q9UPN9 (Q9UPN9 whole entry): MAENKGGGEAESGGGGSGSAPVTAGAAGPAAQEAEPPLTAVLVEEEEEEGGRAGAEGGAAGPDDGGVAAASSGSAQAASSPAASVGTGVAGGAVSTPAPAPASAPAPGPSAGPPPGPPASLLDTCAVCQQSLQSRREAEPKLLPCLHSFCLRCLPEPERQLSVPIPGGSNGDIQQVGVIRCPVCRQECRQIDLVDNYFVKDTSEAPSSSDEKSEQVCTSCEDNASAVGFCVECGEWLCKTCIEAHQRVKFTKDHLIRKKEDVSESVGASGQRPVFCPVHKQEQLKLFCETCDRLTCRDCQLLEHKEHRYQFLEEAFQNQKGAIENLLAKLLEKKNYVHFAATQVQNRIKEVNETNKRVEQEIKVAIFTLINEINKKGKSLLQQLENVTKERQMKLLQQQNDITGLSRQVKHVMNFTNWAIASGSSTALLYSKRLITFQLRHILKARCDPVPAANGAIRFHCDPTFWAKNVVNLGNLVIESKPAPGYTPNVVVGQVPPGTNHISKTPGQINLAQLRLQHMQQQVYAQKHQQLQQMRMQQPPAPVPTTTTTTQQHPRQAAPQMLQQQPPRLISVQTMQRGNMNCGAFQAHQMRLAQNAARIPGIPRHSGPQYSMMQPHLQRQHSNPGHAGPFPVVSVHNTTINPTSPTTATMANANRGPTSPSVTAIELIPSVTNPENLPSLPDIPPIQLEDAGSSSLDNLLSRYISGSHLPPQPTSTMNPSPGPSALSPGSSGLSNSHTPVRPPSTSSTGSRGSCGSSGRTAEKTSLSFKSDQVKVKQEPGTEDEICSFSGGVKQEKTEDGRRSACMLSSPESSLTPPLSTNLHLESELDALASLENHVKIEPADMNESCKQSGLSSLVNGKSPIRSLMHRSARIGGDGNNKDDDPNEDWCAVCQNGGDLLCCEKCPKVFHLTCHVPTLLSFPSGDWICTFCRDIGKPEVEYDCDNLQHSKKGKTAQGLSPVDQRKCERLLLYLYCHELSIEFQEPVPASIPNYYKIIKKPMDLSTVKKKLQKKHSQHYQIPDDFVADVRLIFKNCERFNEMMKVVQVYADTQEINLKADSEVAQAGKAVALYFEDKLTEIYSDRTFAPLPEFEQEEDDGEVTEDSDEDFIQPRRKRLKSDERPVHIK
Sequence of UniProt O75925 (O75925 whole entry): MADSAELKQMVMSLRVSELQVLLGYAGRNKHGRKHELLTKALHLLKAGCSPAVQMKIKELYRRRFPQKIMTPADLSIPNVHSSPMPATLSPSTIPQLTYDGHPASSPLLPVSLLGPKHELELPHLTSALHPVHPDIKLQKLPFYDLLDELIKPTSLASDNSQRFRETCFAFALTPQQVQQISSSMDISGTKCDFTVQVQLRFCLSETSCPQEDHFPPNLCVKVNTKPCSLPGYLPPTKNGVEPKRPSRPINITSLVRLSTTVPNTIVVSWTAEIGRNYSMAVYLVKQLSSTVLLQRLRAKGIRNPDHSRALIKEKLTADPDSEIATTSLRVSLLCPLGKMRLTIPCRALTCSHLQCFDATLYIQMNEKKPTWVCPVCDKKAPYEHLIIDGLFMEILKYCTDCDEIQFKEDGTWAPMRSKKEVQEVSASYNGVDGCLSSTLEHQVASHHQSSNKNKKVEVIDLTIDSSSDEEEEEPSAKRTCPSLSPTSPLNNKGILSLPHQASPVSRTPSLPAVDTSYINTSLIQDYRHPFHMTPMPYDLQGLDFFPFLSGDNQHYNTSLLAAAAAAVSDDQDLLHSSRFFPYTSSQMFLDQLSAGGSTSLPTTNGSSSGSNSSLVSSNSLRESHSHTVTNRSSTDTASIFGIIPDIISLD

other: Log2 LFQ ratio (TurboID-PML WT / TurboID-PML 3MAS) (DAXX): 2.3 Log2 LFQ
other: Log2 LFQ ratio (TurboID-PML WT / TurboID-PML 3MAS) (EXOSC9): 1.8 Log2 LFQ
other: Log2 LFQ ratio (TurboID-PML WT / TurboID-PML 3MAS) (FUS): 4.5 Log2 LFQ
other: Log2 LFQ ratio (TurboID-PML WT / TurboID-PML 3MAS) (GATAD2B): 1.4 Log2 LFQ
other: Log2 LFQ ratio (TurboID-PML WT / TurboID-PML 3MAS) (HSPA8): 0.55 Log2 LFQ
other: Log2 LFQ ratio (TurboID-PML WT / TurboID-PML 3MAS) (IRF2BP2): 0.15 Log2 LFQ
other: Log2 LFQ ratio (TurboID-PML WT / TurboID-PML 3MAS) (PIAS1): 3.5 Log2 LFQ
other: Log2 LFQ ratio (TurboID-PML WT / TurboID-PML 3MAS) (PIAS2): 2.3 Log2 LFQ
other: Log2 LFQ ratio (TurboID-PML WT / TurboID-PML 3MAS) (PIAS3): 3.6 Log2 LFQ
other: Log2 LFQ ratio (TurboID-PML WT / TurboID-PML 3MAS) (PIAS4): 3.7 Log2 LFQ
other: Log2 LFQ ratio (TurboID-PML WT / TurboID-PML 3MAS) (RAD54L2): 5.4 Log2 LFQ
other: Log2 LFQ ratio (TurboID-PML WT / TurboID-PML 3MAS) (RBM22): 3.5 Log2 LFQ
other: Log2 LFQ ratio (TurboID-PML WT / TurboID-PML 3MAS) (SIMC1): 5.9 Log2 LFQ
other: Log2 LFQ ratio (TurboID-PML WT / TurboID-PML 3MAS) (SNW1): 0.58 Log2 LFQ
other: Log2 LFQ ratio (TurboID-PML WT / TurboID-PML 3MAS) (TRIM24): 3.4 Log2 LFQ
other: Log2 LFQ ratio (TurboID-PML WT / TurboID-PML 3MAS) (TRIM33): 3.4 Log2 LFQ
other: Log2 LFQ ratio (TurboID-PML WT / TurboID-PML 3MAS) (XAB2): 0.1 Log2 LFQ
other: Log2 LFQ ratio (TurboID-PML WT / TurboID-PML 3MAS) (ZNF280A): 2.9 Log2 LFQ
other: Log2 LFQ ratio (TurboID-PML WT / TurboID-PML 3MAS) (ZNF280B): 4.8 Log2 LFQ
Substance: FLTbID-PML^WT (from UniProt P29590-12) 3MAS (K65; K160; K490 and SIM; replacement residues not printed)
